Data: article PMC3771917, “The Crystal Structure of the Orphan Nuclear Receptor NR2E3/PNR Ligand Binding Domain Reveals a Dimeric Auto-Repressed Conformation” (PLoS ONE, 2013)

Target: the molecule itself
Experiment: SEC; MBP-NR2E3 LBD in solution, compared with Bio-rad Protein Standard

B1: MBP-NR2E3 LBD-His6 fusion protein (MBP–NAAAEF linker–NR2E3(217-410)-His6, C275S) (domain or fragment, human, UniProt Q9Y5X4 217-410, looked up)
chain: LDSIHETSARLLFMAVKWAKNLPVFSSLPFRDQVILLEEAWSELFLLGAIQWSLPLDSSPLLAPPEASAAGGAQGRLTLASMETRVLQETISRFRALAVDPTEFACMKALVLFKPETRGLKDPEHVEALQDQSQVMLSQHSKAHHPSQPVRFGKLLLLLPSLRFITAERIELLFFRKTIGNTPMEKLLCDMFKN
notes: Both tags are non-cleavable; Expressed from pETDuet1; also called MBP-NR2E3 fusion protein; apo NR2E3 LBD; source: E. coli BL21 (DE3), purified (Ni-chelating Hi-Trap, Superdex 200 gel filtration); not shown: MBP (joined by the linker NAAAEF), N-terminal, kept; His6, C-terminal, kept
stoichiometry N: 2
